What all share (experiment): filter binding
In data set [1] the target is T1, MpAgo WT (Marinitoga piezophila, UniProt H2J4R4 1-639).
T1 sequence: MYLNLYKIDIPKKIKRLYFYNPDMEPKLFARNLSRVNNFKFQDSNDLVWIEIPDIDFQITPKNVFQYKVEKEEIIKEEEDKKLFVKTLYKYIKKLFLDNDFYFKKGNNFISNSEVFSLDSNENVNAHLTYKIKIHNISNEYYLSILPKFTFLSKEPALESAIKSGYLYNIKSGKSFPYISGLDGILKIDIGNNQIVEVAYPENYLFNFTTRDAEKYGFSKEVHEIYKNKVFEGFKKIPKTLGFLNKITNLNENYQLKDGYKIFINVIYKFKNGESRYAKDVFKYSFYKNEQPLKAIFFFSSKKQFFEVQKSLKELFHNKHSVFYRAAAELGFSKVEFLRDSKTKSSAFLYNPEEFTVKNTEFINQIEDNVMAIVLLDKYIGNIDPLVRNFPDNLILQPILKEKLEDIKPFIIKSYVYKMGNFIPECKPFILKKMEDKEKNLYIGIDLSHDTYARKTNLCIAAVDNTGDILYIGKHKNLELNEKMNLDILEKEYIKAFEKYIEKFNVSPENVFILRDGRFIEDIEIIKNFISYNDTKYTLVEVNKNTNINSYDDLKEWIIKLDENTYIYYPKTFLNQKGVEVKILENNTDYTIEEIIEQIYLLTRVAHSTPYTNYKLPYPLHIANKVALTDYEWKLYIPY
The conditions noted are these: biotinylated.

In data set [2] the target is T2, dMpAgo (catalytically inactive MpAgo) (Marinitoga piezophila, UniProt H2J4R4 1-639, D446A).
T2 sequence: T1 sequence with D446A

In data set [3] the target is T1, MpAgo WT.
For data set [4], the target named is T1, MpAgo WT. The source holds these as a separate data set.
The target of data set [5] is T2, dMpAgo (catalytically inactive MpAgo). This is another data set of the same source.
Data set [6] shares this target. This is another data set of the same source.
Data set [7] shares this target. This is another data set of the same source.
For data set [8] the target is unchanged. The source holds these as a separate data set.
The target is the same in data set [9]. The source holds these as a separate data set.
Data set [10] has the same target. The source holds these as a separate data set.
The target is the same in data set [11]. The source holds these as a separate data set.
Data set [12] has the same target. The source holds these as a separate data set.
For data set [13] the target is unchanged. This is another data set of the same source.
For data set [14] the target is unchanged. This is another data set of the same source.
For data set [15] the target is unchanged. The source holds these as a separate data set.
Data set [16] shares this target. The source holds these as a separate data set.

Substitutions are numbered along the chain they refer to. Where two headings read alike, the source gives them in different places.

Take 33-nt gRNA: the Kd (as a rule, a measure of binding affinity in units of concentration) with MpAgo WT [1] came out at 35 nM.

B1: BrdU guide / OFF target (mixed)
RNA 1: UAUACAACCUACUACCUCAUU
RNA 2: GUUAUGUGUGUGAUUAUAUUUGUUCCAGUUCCUGUGUAAUAGACAUGGAA
modifications: BrdU at guide 1
Consider B1, for which the binding result in data set [2] was “no binding”. In the case of GAUACAACCUACUACCUCAUU (ssRNA, 5'-OH) [gRNA 5'-rG], the dissociation constant (Kd) is 52 ± 4 nM with MpAgo WT [3] and 49 ± 5 nM in the data set with MpAgo WT [4].

B2: BrdU guide / ON target (mixed)
RNA 1: UAUACAACCUACUACCUCAUU
RNA 2: GGACUAUGAUCUAGAUAUUAAUGAGGUAGUAGGUUGUAUCUCAGGAGGUC
modifications: BrdU at guide 1
Turning to B2, the Kd in [2] turned out to be 0.175 ± 0.023 nM; in data set [5], 0.5 ± 0.115 nM; in data set [6], 0.193 ± 0.02 nM.

B3: G6 guide / A target (mixed)
RNA 1: UGCGGGUGCCAUAUGCAACUU
RNA 2: GGCAGCAUUCAACCAUAUGGCAACCGCAUACAGCCAAG
modifications: BrdU at guide 1
Take B3: the affinity in data set [7], expressed as Kd, was 0.779 ± 0.071 nM.

B4: U6 guide / U target (mixed)
RNA 1: UGCGGUUGCCAUAUGCAACUU
RNA 2: B3 RNA 2 with A23U
modifications: BrdU at guide 1
In the case of B4, the binding result in data set [8] is on record as “binds”.

B5: C6 guide / U target (mixed)
RNA 1: UGCGGCUGCCAUAUGCAACUU
RNA 2: B3 RNA 2 with A23U
modifications: BrdU at guide 1
In the case of B5, in [8], the binding result is recorded as “binds”.

B6: A7 guide / mm9 (mixed)
RNA 1: UAGCGGAUGCCAUAUCCAACU
RNA 2: B3 RNA 2 with C21A, A23U
modifications: BrdU at guide 1
Turning to B6, the binding signal in data set [9] is 327 fold Kd vs complementary.

B7: A7 guide / C target (mixed)
RNA 1: UAGCGGAUGCCAUAUCCAACU
RNA 2: B3 RNA 2 with A23C
modifications: BrdU at guide 1
With B7, the binding signal in [10] was 47 fold Kd vs C7 guide/A target.

B8: C7 guide / A target (mixed)
RNA 1: UAGCGGCUGCCAUAUCCAACU
RNA 2: B3 RNA 2
modifications: BrdU at guide 1
With B8, in data set [11], the binding signal was ~33 fold Kd vs I target.

B9: G6 guide / U target (mixed)
RNA 1: UGCGGGUGCCAUAUGCAACUU
RNA 2: B3 RNA 2 with A23U
modifications: BrdU at guide 1
On to B9, for which the binding result in data set [12] is “binds”.

B10: G6 guide / C target (mixed)
RNA 1: UGCGGGUGCCAUAUGCAACUU
RNA 2: B3 RNA 2 with A23C
modifications: BrdU at guide 1
In the case of B10, the binding signal in data set [13] is 13 fold Kd vs C6 guide/G target.

B11: U6 guide / G target (mixed)
RNA 1: UGCGGUUGCCAUAUGCAACUU
RNA 2: B3 RNA 2 with A23G
modifications: BrdU at guide 1
For the molecule B11, in [14], the binding signal is 21 fold Kd vs G6 guide/U target.

B12: A6 guide / A target (mixed)
RNA 1: UGCGGAUGCCAUAUGCAACUU
RNA 2: B3 RNA 2
modifications: BrdU at guide 1
B12: the binding signal in data set [14] is ~10 fold Kd vs I target.

B13: A6 guide / U target (complementary) (mixed)
RNA 1: UGCGGAUGCCAUAUGCAACUU
RNA 2: B3 RNA 2 with A23U
modifications: BrdU at guide 1
Take B13: the binding result in [7] is “binds”.

B14: A6 guide / mm1 (mixed)
RNA 1: UGCGGAUGCCAUAUGCAACUU
RNA 2: B3 RNA 2 with A23U, A28U
modifications: BrdU at guide 1
Regarding B14, in data set [15], the binding result is “binds”.

B15: C6 guide / G target (mixed)
RNA 1: UGCGGCUGCCAUAUGCAACUU
RNA 2: B3 RNA 2 with A23G
modifications: BrdU at guide 1
In the case of B15, the binding result in data set [16] was “binds”.
